Consider one molecule from US20100322931A1 (AbbVie / Abbott, published 2010).

This assay deals with T1, VEGF (R&D systems, Minneapolis, Minn.) (UniProt P15692-4 27-191, limits assumed).
T1 construct: Soluble analyte in the BIAcore assay; also called vascular endothelial growth factor; VEGFA
As to the kind of experiment: SPR (BIAcore 2000/3000), antibody captured on anti-human Fc, VEGF as analyte, 1:1 Langmuir fit; variant corresponding to SEQ ID NO:82, the tightest of the variants. The protocol: RL was kept low to minimize avidity due to the dimeric nature of VEGF. No capture of the antibody was made on the reference surface to serve as a negative control. Subsequently, VEGF was injected to all flow cells at a flow rate of 50 μL/min for two minutes to monitor association followed by a 25-minute flow of HBS-P running buffer (10 mM HEPES, 150 mM sodium chloride, 0.005% P-20, pH 7.4) to monitor the dissociation phase. At each cycle, VEGF, in 6 different concentrations of VEGF ranging between 0 nM and 512 nM and at four-fold increments, was injected over the surface. […] Binding data were fit to the 1:1 Langmuir model to extract binding constants from the BIAevaluate software. Double referencing was applied in each analysis to eliminate background responses from the reference surface and buffer only control. All the binding kinetics data were analyzed at least three separate determinations.

T1 sequence (P15692 other isoform, or with tags, fused parts or gaps limits assumed): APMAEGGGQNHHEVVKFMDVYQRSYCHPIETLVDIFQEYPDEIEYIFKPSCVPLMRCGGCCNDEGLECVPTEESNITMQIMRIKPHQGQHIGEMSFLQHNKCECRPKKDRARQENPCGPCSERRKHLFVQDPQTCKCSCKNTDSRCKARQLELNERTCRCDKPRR

B1: bevacizumab variant corresponding to SEQ ID NO:82 (antibody, V domains shown)
VH: EVQLVESGGGLVQPGGSLRLSCAASGYTFTFYGMNWVRQAPGKGLEWVGWINTYTGEPTYAADFKRRFTFSLDTSKSTAYLQMNSLRAEDTAVYYCAKYPDYDGGSHWYFDVWGQGTLVTVSS
VL: DIQMTQSPSSLSASVGDRVTITCSASQDISNYLNWYQQKPGKAPKVLIYFTSSLHSGVPSRFSGSGSGTDFTLTISSLQPEDFATYYCQQYSTVPWTFGQGTKVEIKR
notes: Variant VH cloned with the unmodified VL into a human IgG1-containing plasmid and expressed in 293T/17 cells
The Kd is the free concentration of one partner at which half of the binding sites on the other are occupied at equilibrium, for simple one-to-one binding. Regarding B1, the Kd is 0.08 nM.
